Patent US11396552 (DIABETES FREE, dated 2022)
Changes are numbered by the printed parent chain. Blank lines part the entries; values can stand above or below the binder they belong to.

Columns and labels:
[1] = target: CD40 on peripheral blood mononuclear cells (PBMC) from healthy donors (human, UniProt P25942 21-277); assay: cell-based or functional assay
[2] = target: T1, recombinant CD40 (human, UniProt P25942 21-193, limits assumed); assay: ELISA, plates coated with recombinant CD40, AP-conjugated anti-human kappa detection; effective concentration in supernatant read on a PG102 reference curve
T1 construct: the ELISA method itself names no species or construct; also called antigen CD40
Description: Binding of the antibody variants to CD40 was measured using an ELISA based assay based on UKSL-2057. Microtiter plates were coated with recombinant CD40 before the antibody variants were added and detected using an alkaline phosphatase conjugated antihuman kappa IgG.
Samples were then prepared and analyzed The results were converted to effective concentrations in the clarified supernatant […] This assay provides an assessment of the affinity of the antibody variants for CD40.

T1 sequence (P25942 21-193 limits assumed): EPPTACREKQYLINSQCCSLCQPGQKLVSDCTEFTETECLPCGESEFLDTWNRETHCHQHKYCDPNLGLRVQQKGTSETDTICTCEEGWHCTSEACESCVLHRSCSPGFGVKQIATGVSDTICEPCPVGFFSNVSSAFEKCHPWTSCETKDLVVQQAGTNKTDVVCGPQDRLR
Sequence of CD40 on peripheral blood mononuclear cells (PBMC) from healthy donors (P25942 21-277): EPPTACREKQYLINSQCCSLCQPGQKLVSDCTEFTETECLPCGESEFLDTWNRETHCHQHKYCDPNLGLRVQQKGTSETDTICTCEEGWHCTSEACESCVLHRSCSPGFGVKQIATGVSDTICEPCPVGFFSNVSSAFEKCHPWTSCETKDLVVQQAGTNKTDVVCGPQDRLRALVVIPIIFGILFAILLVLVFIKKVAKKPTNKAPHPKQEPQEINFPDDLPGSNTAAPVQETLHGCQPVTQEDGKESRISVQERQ

Percentage inhibition of TNF secretion at 1 ng/ml [1]: -5.2%
Percentage inhibition of TNF secretion at 10 ng/ml [1]: 81.2%
CD40 binding [2]: 14.6 mg/L
B1: PG102 wild-type recombinant antibody (antibody, human IgG4 S228P, kappa, V domains shown)
VH: QVKLQESGPGLVKPSETLSITCTVSGFSLSRYSVYWIRQPPGKGPEWMGMMWGGGSTDYSTSLKSRLTISKDTSKSQVSLKMNSLRTDDTAMYYCVRTDGDYWGQGTTVTVSS
VL: ELQLTQSPLSLPVTLGQPASISCRSSQSLANSNGNTYLHWYLQRPGQSPRLLIYKVSNRFSGVPDRFSGSGSGTDFTLKISRVEAEDVGVYYCSQSTHVPWTFGGGTKLEIKR
notes: Human IgG4pro(deltaK) heavy, kappa light; also called PG102_Wt; PG102 wt

CD40 binding [2]: 33.6 mg/L
B2: PG102_Var7 (antibody, human IgG4 S228P, kappa, V domains shown)
VH: QVQLQESGPGLVKPSQTLSLTCTVSGFSLSRYSVYWVRQPPGKGLEWIGMMWGGGSTDYNPSLKSRLTISKDTSKSQVSLKLSSLTAADTAVYYCVRTDGDYWGQGTLVTVSS
VL: B1 VL with N31S, N33Q
notes: IgG4pro(deltaK)/kappa; also called FFP104_Var7

CD40 binding [2]: 23.5 mg/L
B3: PG102_Var8 (antibody, human IgG4 S228P, kappa, V domains shown)
VH: QVQLVESGGGLVKPGGSLRLSCAVSGFSLSRYSVYWIRQAPGKGLEWMGMMWGGGSTDYSTSVKGRFTISKDNAKTSVYLQMSSLRAEDTAVYYCVRTDGDYWGQGTLVTVSS
VL: B1 VL with N31S, N33Q
notes: IgG4pro(deltaK)/kappa; also called FFP104_Var8

Percentage inhibition of TNF secretion at 1 ng/ml [1]: 22.5%
Percentage inhibition of TNF secretion at 10 ng/ml [1]: 87.4%
CD40 binding [2]: 34.9 mg/L
B4: PG102_Var5 (antibody, human IgG4 S228P, kappa, V domains shown)
VH: B1 VH with K3Q, N83S, R86T, T87A, D88A, M92V, T108L
VL: B1 VL with N31S, N33Q
notes: IgG4pro(deltaK)/kappa; also called FFP104_Var5

CD40 binding [2]: 29.5 mg/L
B5: PG102_Var4 (antibody, human IgG4 S228P, kappa, V domains shown)
VH: B3 VH
VL: B1 VL with N31S, N33S
notes: IgG4pro(deltaK)/kappa; also called FFP104_Var4

Percentage inhibition of TNF secretion at 1 ng/ml [1]: 14.4%
Percentage inhibition of TNF secretion at 10 ng/ml [1]: 75.8%
CD40 binding [2]: 4.35 mg/L
B6: PG102_Var10 (antibody, human IgG4 S228P, kappa, V domains shown)
VH: B2 VH with Q16E, L20I, I48M, N60S, P61T, L82M
VL: B1 VL with N31D, N33Q
notes: IgG4pro(deltaK)/kappa; also called FFP104_Var10

CD40 binding [2]: 22.8 mg/L
B7: PG102_Var13 (antibody, human IgG4 S228P, kappa, V domains shown)
VH: B1 VH with K3Q, N83S, R86T, T87A, D88A, M92V, T108L
VL: B1 VL with E1D, L2I, Q3V, L4M, L15P, N31S, N33Q, R44K
notes: IgG4pro(deltaK)/kappa; also called FFP104_Var13

Percentage inhibition of TNF secretion at 1 ng/ml [1]: 21.8%
Percentage inhibition of TNF secretion at 10 ng/ml [1]: 85.5%
CD40 binding [2]: 23 mg/L
B8: PG102_Var14 (antibody, human IgG4 S228P, kappa, V domains shown)
VH: B2 VH with Q16E, L20I, I48M, N60S, P61T, L82M
VL: B1 VL with E1D, L2I, Q3V, L4M, L15P, N31S, N33Q, R44K
notes: IgG4pro(deltaK)/kappa; also called FFP104_Var14

CD40 binding [2]: 2.35 mg/L
B9: PG102_Var12 (antibody, human IgG4 S228P, kappa, V domains shown)
VH: B3 VH
VL: B1 VL with N31D, N33Q
notes: IgG4pro(deltaK)/kappa; also called FFP104_Var12

Percentage inhibition of TNF secretion at 1 ng/ml [1]: 20.2%
Percentage inhibition of TNF secretion at 10 ng/ml [1]: 87.2%
CD40 binding [2]: 30.1 mg/L
B10: PG102_Var2 (antibody, human IgG4 S228P, kappa, V domains shown)
VH: B2 VH with Q16E, L20I, I48M, N60S, P61T, L82M
VL: B1 VL with N31S, N33S
notes: IgG4pro(deltaK)/kappa; also called FFP104_Var2

CD40 binding [2]: 12.6 mg/L
B11: PG102_Var11 (antibody, human IgG4 S228P, kappa, V domains shown)
VH: B2 VH
VL: B1 VL with N31D, N33Q
notes: IgG4pro(deltaK)/kappa; also called FFP104_Var11

CD40 binding [2]: 17 mg/L
B12: PG102_Var9 (antibody, human IgG4 S228P, kappa, V domains shown)
VH: B1 VH with K3Q, N83S, R86T, T87A, D88A, M92V, T108L
VL: B1 VL with N31D, N33Q
notes: IgG4pro(deltaK)/kappa; also called FFP104_Var9

Percentage inhibition of TNF secretion at 1 ng/ml [1]: 16.1%
Percentage inhibition of TNF secretion at 10 ng/ml [1]: 88.5%
CD40 binding [2]: 38.5 mg/L
B13: PG102_Var3 (antibody, human IgG4 S228P, kappa, V domains shown)
VH: B2 VH
VL: B1 VL with N31S, N33S
notes: IgG4pro(deltaK)/kappa; also called FFP104_Var3

Percentage inhibition of TNF secretion at 1 ng/ml [1]: -0.9%
Percentage inhibition of TNF secretion at 10 ng/ml [1]: 81.8%
CD40 binding [2]: 34.9 mg/L
B14: PG102_Var1 (antibody, human IgG4 S228P, kappa, V domains shown)
VH: B1 VH with K3Q, N83S, R86T, T87A, D88A, M92V, T108L
VL: B1 VL with N31S, N33S
notes: IgG4pro(deltaK)/kappa; also called FFP104_Var1

CD40 binding [2]: 20.7 mg/L
B15: PG102_Var16 (antibody, human IgG4 S228P, kappa, V domains shown)
VH: B3 VH
VL: B1 VL with E1D, L2I, Q3V, L4M, L15P, N31S, N33Q, R44K
notes: IgG4pro(deltaK)/kappa; also called FFP104_Var16

Percentage inhibition of TNF secretion at 1 ng/ml [1]: 16.6%
Percentage inhibition of TNF secretion at 10 ng/ml [1]: 86%
CD40 binding [2]: 39.7 mg/L
B16: PG102_Var6 (antibody, human IgG4 S228P, kappa, V domains shown)
VH: B2 VH with Q16E, L20I, I48M, N60S, P61T, L82M
VL: B1 VL with N31S, N33Q
notes: IgG4pro(deltaK)/kappa; also called FFP104_Var6

CD40 binding [2]: 29.4 mg/L
B17: PG102_Var15 (antibody, human IgG4 S228P, kappa, V domains shown)
VH: B2 VH
VL: B1 VL with E1D, L2I, Q3V, L4M, L15P, N31S, N33Q, R44K
notes: IgG4pro(deltaK)/kappa; also called FFP104_Var15
